biological target: FGFR3 (UniProt P22607); experiment: phosphorylation enrichment, bacterial display (enrichment ratio); higher = better substrate or ligand; peptides without Tyr show the background
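Also: 11-residue human phosphosite peptides and single-mutation variants displayed on the E. coli surface, counted by deep sequencing, each peptide's frequency after selection divided by its frequency in the unselected input library; frequency after pTyr selection over input frequency; kinase dosed for 20-30% of maximal phosphorylation in three min.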

FGFR3, sequence (P22607 whole entry, looked up): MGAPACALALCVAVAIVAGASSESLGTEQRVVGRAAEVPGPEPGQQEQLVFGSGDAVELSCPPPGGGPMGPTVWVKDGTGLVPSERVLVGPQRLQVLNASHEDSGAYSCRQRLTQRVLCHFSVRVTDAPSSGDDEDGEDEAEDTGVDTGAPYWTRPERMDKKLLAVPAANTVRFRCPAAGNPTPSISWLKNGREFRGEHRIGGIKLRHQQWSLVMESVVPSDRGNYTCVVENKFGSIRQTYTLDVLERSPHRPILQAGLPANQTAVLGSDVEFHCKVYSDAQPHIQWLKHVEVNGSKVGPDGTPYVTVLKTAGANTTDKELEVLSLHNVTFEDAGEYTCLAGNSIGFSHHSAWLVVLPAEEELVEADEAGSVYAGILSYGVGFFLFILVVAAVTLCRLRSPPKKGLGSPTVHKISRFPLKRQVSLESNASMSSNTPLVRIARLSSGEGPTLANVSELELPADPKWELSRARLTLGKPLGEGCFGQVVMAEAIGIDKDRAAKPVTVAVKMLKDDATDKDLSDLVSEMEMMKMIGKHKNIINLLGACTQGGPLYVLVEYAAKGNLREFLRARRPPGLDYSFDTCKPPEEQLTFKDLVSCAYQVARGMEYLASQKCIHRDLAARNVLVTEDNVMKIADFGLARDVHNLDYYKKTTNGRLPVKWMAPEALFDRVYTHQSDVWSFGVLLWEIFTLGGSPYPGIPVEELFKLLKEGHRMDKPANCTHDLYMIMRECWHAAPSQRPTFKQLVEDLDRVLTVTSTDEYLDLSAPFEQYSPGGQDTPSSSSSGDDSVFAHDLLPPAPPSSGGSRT

Sequence	phosphorylation enrichment
YSTSPYLLEAA [BRIP1_Y921]	0.604
ISSLDYISKTK [VAV3_Y294]	0.513
ATGMEYLASQK [FGFR2_Y616_R612T]	0.833
GLGGGCGGASG [KRT8_Y54_Y54C]	0.544
MGHVNYGAFIN [GLB1_Y485_R482H_YF]	0.505
QNTGGYYDLYG [PTPN11_Y62_D61G]	10
DSSIRYLQEIH [FGG_Y135_Y140H]	0.509
AAVDEYLEHRR [FAM221A_Y17_Y20H]	0.695
KQLGEYKFQNA [ALB_Y425_E420K]	0.417
VDESLYKTHPQ [HK1_Y417_G414E]	0.699
TFMKKYPKVFL [CNBD1_Y70_Q69K]	0.419
CEDGTYSPEIS [PTDSS1_Y424]	0.824
PELINYQQHNS [BTK_Y361_H362Q]	0.79
ELANYYKLHHI [AK7_Y391]	4.77
EVTRLYGSVCD [TC2N_Y154_K151T]	0.783
PQIVKYRPDCI [LDHB_Y128_S129R]	0.537
AIDVGYRLIDC [AKR1B1_Y40_H42L]	0.594

Sequence	phosphorylation enrichment
YKRAVYCIIGR [NUP93_Y391]	0.563
GQECKYPPTQD [METAP2_Y137_E136K]	0.638
TFINKYQGKLF [HGD_Y249_V245F]	0.457
KEGSAYGSQSV [NFKB2_Y868_D865G]	0.498
SSSPTYLDLPF [GLI3_Y168_P169L]	3.79
LQLLGHRPVFS [CHST6_Y358_Y358H_YF]	0.785
CVAARYMDMKG [WFIKKN2_Y93_V96M]	0.637
LISVSYDDWDF [GRIN2A_Y281_YF]	1.09
NGSKAYAFVHF [PABPC5_Y147_G146A_YF]	0.763
MNKNAYHNVTA [ST3GAL6_Y306]	0.451
FTGNTYRVGDT [FN1_Y106_YF]	0.472
IGCHAYGDQYR [IDH1_Y135_R132C]	0.741
MPAVTYTLAMR [MEGF10_Y895_P897L]	0.73
FPCSVYMPDEW [INSR_Y1011_V1012M]	0.712
PEVRRHVLPLN [RPE65_Y368_Y368H]	1.03
DGKYSYLKVGH [GRM3_Y480_G475D]	0.427

system: Fer (mouse); experiment: as above

Sequence	phosphorylation enrichment
YSTSPYLLEAA [BRIP1_Y921]	0.53
ISSLDYISKTK [VAV3_Y294]	0.386
ATGMEYLASQK [FGFR2_Y616_R612T]	0.426
GLGGGCGGASG [KRT8_Y54_Y54C]	0.449
MGHVNYGAFIN [GLB1_Y485_R482H_YF]	0.406
QNTGGYYDLYG [PTPN11_Y62_D61G]	2.69
DSSIRYLQEIH [FGG_Y135_Y140H]	0.33
AAVDEYLEHRR [FAM221A_Y17_Y20H]	0.421
KQLGEYKFQNA [ALB_Y425_E420K]	0.306
VDESLYKTHPQ [HK1_Y417_G414E]	0.572
TFMKKYPKVFL [CNBD1_Y70_Q69K]	0.393
CEDGTYSPEIS [PTDSS1_Y424]	0.589
PELINYQQHNS [BTK_Y361_H362Q]	0.742
ELANYYKLHHI [AK7_Y391]	0.629
EVTRLYGSVCD [TC2N_Y154_K151T]	0.982
PQIVKYRPDCI [LDHB_Y128_S129R]	0.12
AIDVGYRLIDC [AKR1B1_Y40_H42L]	0.424

Sequence	phosphorylation enrichment
YKRAVYCIIGR [NUP93_Y391]	0.505
GQECKYPPTQD [METAP2_Y137_E136K]	0.511
TFINKYQGKLF [HGD_Y249_V245F]	0.358
KEGSAYGSQSV [NFKB2_Y868_D865G]	0.423
SSSPTYLDLPF [GLI3_Y168_P169L]	0.621
LQLLGHRPVFS [CHST6_Y358_Y358H_YF]	0.817
CVAARYMDMKG [WFIKKN2_Y93_V96M]	0.431
LISVSYDDWDF [GRIN2A_Y281_YF]	19.4
NGSKAYAFVHF [PABPC5_Y147_G146A_YF]	0.769
MNKNAYHNVTA [ST3GAL6_Y306]	0.379
FTGNTYRVGDT [FN1_Y106_YF]	0.396
IGCHAYGDQYR [IDH1_Y135_R132C]	0.569
MPAVTYTLAMR [MEGF10_Y895_P897L]	0.488
FPCSVYMPDEW [INSR_Y1011_V1012M]	0.512
PEVRRHVLPLN [RPE65_Y368_Y368H]	0.843
DGKYSYLKVGH [GRM3_Y480_G475D]	0.372

biological target: Fes (UniProt P07332); experiment: as above
Sequence (P07332 whole entry, looked up): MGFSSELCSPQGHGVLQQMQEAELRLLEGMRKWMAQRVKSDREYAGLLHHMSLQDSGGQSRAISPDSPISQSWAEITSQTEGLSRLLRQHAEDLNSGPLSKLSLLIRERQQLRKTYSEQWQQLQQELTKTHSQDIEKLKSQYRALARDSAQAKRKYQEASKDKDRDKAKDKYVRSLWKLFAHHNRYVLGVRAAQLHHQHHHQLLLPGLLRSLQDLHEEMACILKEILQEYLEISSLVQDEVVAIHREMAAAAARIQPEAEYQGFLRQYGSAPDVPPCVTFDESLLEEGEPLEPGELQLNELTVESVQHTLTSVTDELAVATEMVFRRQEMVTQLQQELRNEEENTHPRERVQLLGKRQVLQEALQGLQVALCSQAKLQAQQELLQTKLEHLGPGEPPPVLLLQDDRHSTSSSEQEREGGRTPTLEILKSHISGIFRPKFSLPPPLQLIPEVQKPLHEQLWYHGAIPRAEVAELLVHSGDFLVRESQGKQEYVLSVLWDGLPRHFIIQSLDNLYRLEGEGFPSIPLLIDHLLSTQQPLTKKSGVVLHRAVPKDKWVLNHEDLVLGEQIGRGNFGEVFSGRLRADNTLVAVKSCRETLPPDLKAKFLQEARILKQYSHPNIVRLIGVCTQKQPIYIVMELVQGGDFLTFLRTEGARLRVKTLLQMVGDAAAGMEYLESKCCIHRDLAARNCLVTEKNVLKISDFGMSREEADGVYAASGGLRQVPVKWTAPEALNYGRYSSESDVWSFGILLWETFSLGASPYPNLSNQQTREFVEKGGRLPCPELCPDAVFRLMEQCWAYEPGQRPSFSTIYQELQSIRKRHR

Sequence	phosphorylation enrichment
YSTSPYLLEAA [BRIP1_Y921]	0.931
ISSLDYISKTK [VAV3_Y294]	0.696
ATGMEYLASQK [FGFR2_Y616_R612T]	0.794
GLGGGCGGASG [KRT8_Y54_Y54C]	0.817
MGHVNYGAFIN [GLB1_Y485_R482H_YF]	0.756
QNTGGYYDLYG [PTPN11_Y62_D61G]	1.64
DSSIRYLQEIH [FGG_Y135_Y140H]	0.667
AAVDEYLEHRR [FAM221A_Y17_Y20H]	1.03
KQLGEYKFQNA [ALB_Y425_E420K]	0.565
VDESLYKTHPQ [HK1_Y417_G414E]	0.989
TFMKKYPKVFL [CNBD1_Y70_Q69K]	0.662
CEDGTYSPEIS [PTDSS1_Y424]	1.33
PELINYQQHNS [BTK_Y361_H362Q]	1.38
ELANYYKLHHI [AK7_Y391]	0.591
EVTRLYGSVCD [TC2N_Y154_K151T]	1.29
PQIVKYRPDCI [LDHB_Y128_S129R]	0.839
AIDVGYRLIDC [AKR1B1_Y40_H42L]	1.2

Sequence	phosphorylation enrichment
YKRAVYCIIGR [NUP93_Y391]	0.785
GQECKYPPTQD [METAP2_Y137_E136K]	1.14
TFINKYQGKLF [HGD_Y249_V245F]	0.589
KEGSAYGSQSV [NFKB2_Y868_D865G]	0.75
SSSPTYLDLPF [GLI3_Y168_P169L]	0.667
LQLLGHRPVFS [CHST6_Y358_Y358H_YF]	1.33
CVAARYMDMKG [WFIKKN2_Y93_V96M]	0.984
LISVSYDDWDF [GRIN2A_Y281_YF]	2.44
NGSKAYAFVHF [PABPC5_Y147_G146A_YF]	1.02
MNKNAYHNVTA [ST3GAL6_Y306]	0.52
FTGNTYRVGDT [FN1_Y106_YF]	0.667
IGCHAYGDQYR [IDH1_Y135_R132C]	1.19
MPAVTYTLAMR [MEGF10_Y895_P897L]	1.03
FPCSVYMPDEW [INSR_Y1011_V1012M]	1.06
PEVRRHVLPLN [RPE65_Y368_Y368H]	1.61
DGKYSYLKVGH [GRM3_Y480_G475D]	0.623

biological target: Fyn (UniProt P06241); experiment: as above
Sequence (P06241 whole entry, looked up): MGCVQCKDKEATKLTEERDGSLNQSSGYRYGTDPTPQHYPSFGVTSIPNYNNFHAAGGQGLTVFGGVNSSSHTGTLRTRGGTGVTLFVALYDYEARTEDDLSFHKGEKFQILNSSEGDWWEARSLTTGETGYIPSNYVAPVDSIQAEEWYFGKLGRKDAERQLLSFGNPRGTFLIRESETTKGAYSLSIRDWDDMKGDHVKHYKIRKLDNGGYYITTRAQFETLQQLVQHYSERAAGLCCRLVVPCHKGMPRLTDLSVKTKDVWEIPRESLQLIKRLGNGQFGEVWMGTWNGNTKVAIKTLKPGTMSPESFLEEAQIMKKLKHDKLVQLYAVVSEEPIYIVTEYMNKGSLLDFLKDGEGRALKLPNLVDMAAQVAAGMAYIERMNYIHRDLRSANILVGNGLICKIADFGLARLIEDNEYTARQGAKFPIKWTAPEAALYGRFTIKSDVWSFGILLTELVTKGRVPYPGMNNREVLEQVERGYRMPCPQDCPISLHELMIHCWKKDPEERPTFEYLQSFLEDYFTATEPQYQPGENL

Sequence	phosphorylation enrichment
YSTSPYLLEAA [BRIP1_Y921]	4.67
ISSLDYISKTK [VAV3_Y294]	0.559
ATGMEYLASQK [FGFR2_Y616_R612T]	0.559
GLGGGCGGASG [KRT8_Y54_Y54C]	0.433
MGHVNYGAFIN [GLB1_Y485_R482H_YF]	0.672
QNTGGYYDLYG [PTPN11_Y62_D61G]	8.15
DSSIRYLQEIH [FGG_Y135_Y140H]	0.388
AAVDEYLEHRR [FAM221A_Y17_Y20H]	0.48
KQLGEYKFQNA [ALB_Y425_E420K]	0.395
VDESLYKTHPQ [HK1_Y417_G414E]	0.592
TFMKKYPKVFL [CNBD1_Y70_Q69K]	0.357
CEDGTYSPEIS [PTDSS1_Y424]	0.512
PELINYQQHNS [BTK_Y361_H362Q]	0.829
ELANYYKLHHI [AK7_Y391]	0.566
EVTRLYGSVCD [TC2N_Y154_K151T]	3.63
PQIVKYRPDCI [LDHB_Y128_S129R]	0.699
AIDVGYRLIDC [AKR1B1_Y40_H42L]	0.428

Sequence	phosphorylation enrichment
YKRAVYCIIGR [NUP93_Y391]	0.59
GQECKYPPTQD [METAP2_Y137_E136K]	0.515
TFINKYQGKLF [HGD_Y249_V245F]	0.414
KEGSAYGSQSV [NFKB2_Y868_D865G]	0.395
SSSPTYLDLPF [GLI3_Y168_P169L]	0.638
LQLLGHRPVFS [CHST6_Y358_Y358H_YF]	0.786
CVAARYMDMKG [WFIKKN2_Y93_V96M]	0.439
LISVSYDDWDF [GRIN2A_Y281_YF]	0.953
NGSKAYAFVHF [PABPC5_Y147_G146A_YF]	0.442
MNKNAYHNVTA [ST3GAL6_Y306]	0.519
FTGNTYRVGDT [FN1_Y106_YF]	0.424
IGCHAYGDQYR [IDH1_Y135_R132C]	0.424
MPAVTYTLAMR [MEGF10_Y895_P897L]	0.53
FPCSVYMPDEW [INSR_Y1011_V1012M]	0.875
PEVRRHVLPLN [RPE65_Y368_Y368H]	0.587
DGKYSYLKVGH [GRM3_Y480_G475D]	0.372
